In the supplement of paper PMC9112550, “Optimization of the antimicrobial peptide Bac7 by deep mutational scanning” (BMC Biology, 2022):

tested on: Escherichia coli TOP10; test: shrunken log2 fold change of peptide-encoding DNA abundance (4.5 h post-induction vs induction); higher = less antimicrobial activity (less host growth inhibition); conditions: time post-induction: 4.5 h; library: site-saturation at positions 5, 18, 19, 20
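Also: peptides expressed intracellularly from a pBAD plasmid library in pooled LB shake-flask culture, induced with 0.3% L-arabinose, DNA abundance read by NGS, three biological replicates, DESeq2 with apeglm shrinkage.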

Row | Sequence | shrunken log2 fold change
1 | RRIRCRPPRLPRPRPRPSYKPRP | -0.572
2 | RRIRRRPPRLPRPRPRPHAHPRP | -0.00194
3 | RRIRARPPRLPRPRPRPCCKPRP | -0.12
4 | RRIRHRPPRLPRPRPRPMGSPRP | -0.0537
5 | RRIRPRPPRLPRPRPRPPCTPRP | 0.00476
6 | RRIRQRPPRLPRPRPRPTFAPRP | 0.209
7 | RRIRCRPPRLPRPRPRPQFSPRP | -0.145
8 | RRIRTRPPRLPRPRPRPKLPPRP | 0.214
9 | RRIRKRPPRLPRPRPRPKTQPRP | 0.422
10 | RRIRKRPPRLPRPRPRPSPGPRP | 0.26
11 | RRIRLRPPRLPRPRPRPYQHPRP | -0.661
12 | RRIRARPPRLPRPRPRPEHSPRP | 0.244
13 | RRIRERPPRLPRPRPRPKPHPRP | 0.000708
14 | RRIRRRPPRLPRPRPRPLYEPRP | -0.0905
15 | RRIRLRPPRLPRPRPRPGRWPRP | 0.411
16 | RRIRQRPPRLPRPRPRPWIMPRP | -0.141
17 | RRIRTRPPRLPRPRPRPSFYPRP | -0.343
18 | RRIRTRPPRLPRPRPRPGYVPRP | -0.526
19 | RRIRIRPPRLPRPRPRPFVWPRP | -0.157
20 | RRIRQRPPRLPRPRPRPAMTPRP | 0.00659
21 | RRIRQRPPRLPRPRPRPPMSPRP | -0.139
22 | RRIRQRPPRLPRPRPRPAVRPRP | -0.0154
23 | RRIRGRPPRLPRPRPRPNEQPRP | -0.0722
24 | RRIRKRPPRLPRPRPRPQGMPRP | -0.027
25 | RRIRQRPPRLPRPRPRPADAPRP | 0.242

Row | Sequence | shrunken log2 fold change
26 | RRIRVRPPRLPRPRPRPPMIPRP | -0.523
27 | RRIRFRPPRLPRPRPRPLRLPRP | 0.891
28 | RRIRIRPPRLPRPRPRPWLGPRP | 0.0945
29 | RRIRRRPPRLPRPRPRPVVYPRP | 0.152
30 | RRIRLRPPRLPRPRPRPEWHPRP | 0.222
31 | RRIRLRPPRLPRPRPRPPAKPRP | 0.529
32 | RRIRWRPPRLPRPRPRPMNGPRP | -0.131
33 | RRIRIRPPRLPRPRPRPSDAPRP | -0.0664
34 | RRIRRRPPRLPRPRPRPEIEPRP | 0.216
35 | RRIRHRPPRLPRPRPRPASHPRP | 0.0269
36 | RRIRSRPPRLPRPRPRPWEMPRP | -0.00146
37 | RRIRRRPPRLPRPRPRPAFNPRP | 0.201
38 | RRIRIRPPRLPRPRPRPQQVPRP | 0.00944
39 | RRIRQRPPRLPRPRPRPKTDPRP | -0.326
40 | RRIRARPPRLPRPRPRPMIAPRP | 0.263
41 | RRIRVRPPRLPRPRPRPGINPRP | -0.0188
42 | RRIRIRPPRLPRPRPRPRSIPRP | 0.0721
43 | RRIRHRPPRLPRPRPRPHNFPRP | -0.0184
44 | RRIRPRPPRLPRPRPRPHQDPRP | -0.362
45 | RRIRERPPRLPRPRPRPPWDPRP | -0.0062
46 | RRIRVRPPRLPRPRPRPQLEPRP | 0.144
47 | RRIRFRPPRLPRPRPRPGYDPRP | -0.292
48 | RRIRSRPPRLPRPRPRPWVDPRP | -0.0314
49 | RRIRRRPPRLPRPRPRPHEQPRP | 0.0519
50 | RRIRFRPPRLPRPRPRPRWPPRP | 0.327

Row | Sequence | shrunken log2 fold change
51 | RRIRHRPPRLPRPRPRPGCNPRP | -0.175
52 | RRIRIRPPRLPRPRPRPAQEPRP | -0.0756
53 | RRIRLRPPRLPRPRPRPEFVPRP | 0.0203
54 | RRIRHRPPRLPRPRPRPYMIPRP | -0.025
55 | RRIRFRPPRLPRPRPRPYSDPRP | -0.298
56 | RRIRHRPPRLPRPRPRPFGWPRP | 0.0661
57 | RRIRVRPPRLPRPRPRPKLQPRP | 0.32
58 | RRIRSRPPRLPRPRPRPHYAPRP | -0.247
59 | RRIRLRPPRLPRPRPRPQHTPRP | -0.418
60 | RRIRARPPRLPRPRPRPAWCPRP | 1.28
61 | RRIRPRPPRLPRPRPRPPYPPRP | -0.0364
62 | RRIRPRPPRLPRPRPRPSPCPRP | -0.0121
63 | RRIRQRPPRLPRPRPRPPLVPRP | 0.931
64 | RRIRVRPPRLPRPRPRPWWMPRP | -0.26
65 | RRIRQRPPRLPRPRPRPLEKPRP | -0.0015
66 | RRIRFRPPRLPRPRPRPWLTPRP | -0.0554
67 | RRIRKRPPRLPRPRPRPSEGPRP | 0.0116
68 | RRIRPRPPRLPRPRPRPHHNPRP | -0.859
69 | RRIRMRPPRLPRPRPRPVTGPRP | -0.00102
70 | RRIRSRPPRLPRPRPRPIWWPRP | 0.361
71 | RRIRWRPPRLPRPRPRPWKHPRP | 0.0264
72 | RRIRHRPPRLPRPRPRPMTNPRP | -0.19
73 | RRIRNRPPRLPRPRPRPTLYPRP | -0.3
74 | RRIRGRPPRLPRPRPRPTMCPRP | 0.805
75 | RRIRLRPPRLPRPRPRPPINPRP | -0.00991

Row | Sequence | shrunken log2 fold change
76 | RRIRPRPPRLPRPRPRPKRKPRP | 0.238
77 | RRIRYRPPRLPRPRPRPWPAPRP | 0.00297
78 | RRIRYRPPRLPRPRPRPKCFPRP | -0.0925
79 | RRIRVRPPRLPRPRPRPHMGPRP | -0.302
80 | RRIRLRPPRLPRPRPRPIWIPRP | -0.134
81 | RRIRWRPPRLPRPRPRPLCRPRP | 0.17
82 | RRIRERPPRLPRPRPRPISEPRP | -0.0562
83 | RRIRGRPPRLPRPRPRPIQHPRP | -0.0341
84 | RRIRNRPPRLPRPRPRPTGGPRP | 0.154
85 | RRIRQRPPRLPRPRPRPMIFPRP | -0.0627
86 | RRIRIRPPRLPRPRPRPMRGPRP | 1.32
87 | RRIRPRPPRLPRPRPRPKKDPRP | -0.151
88 | RRIRDRPPRLPRPRPRPLVEPRP | 0.331
89 | RRIRERPPRLPRPRPRPWQSPRP | -0.00865
90 | RRIRGRPPRLPRPRPRPRHKPRP | 0.149
91 | RRIRCRPPRLPRPRPRPIWEPRP | 0.0488
92 | RRIRPRPPRLPRPRPRPNLSPRP | -0.168
93 | RRIRPRPPRLPRPRPRPNEMPRP | 0.0125
94 | RRIRWRPPRLPRPRPRPCQWPRP | 0.0226
95 | RRIRMRPPRLPRPRPRPHEVPRP | 0.16
96 | RRIRSRPPRLPRPRPRPLDFPRP | -0.223
97 | RRIRARPPRLPRPRPRPIVEPRP | 0.207
98 | RRIRFRPPRLPRPRPRPAQPPRP | 0.277
99 | RRIRKRPPRLPRPRPRPCNAPRP | -0.0429
100 | RRIRSRPPRLPRPRPRPDFTPRP | 0.0298

Row | Sequence | shrunken log2 fold change
101 | RRIRERPPRLPRPRPRPETRPRP | -0.0227
102 | RRIRNRPPRLPRPRPRPQKLPRP | -0.188
103 | RRIRTRPPRLPRPRPRPPGMPRP | 0.424
104 | RRIRHRPPRLPRPRPRPCVWPRP | 0.0245
105 | RRIRQRPPRLPRPRPRPCREPRP | -0.0541
106 | RRIRWRPPRLPRPRPRPFSLPRP | 0.141
107 | RRIRRRPPRLPRPRPRPSPWPRP | 0.335
108 | RRIRKRPPRLPRPRPRPLQWPRP | 0.0701
109 | RRIRWRPPRLPRPRPRPDNEPRP | 0.403
110 | RRIRYRPPRLPRPRPRPTYNPRP | -1.32
111 | RRIRNRPPRLPRPRPRPFVWPRP | -0.0187
112 | RRIRHRPPRLPRPRPRPWNHPRP | -0.0561
113 | RRIRFRPPRLPRPRPRPISKPRP | -0.0939
114 | RRIRWRPPRLPRPRPRPWYSPRP | -0.534
115 | RRIRHRPPRLPRPRPRPHSQPRP | -0.224
116 | RRIRNRPPRLPRPRPRPGVHPRP | 0.25
117 | RRIRMRPPRLPRPRPRPKCSPRP | -0.0186
118 | RRIRVRPPRLPRPRPRPVRDPRP | 0.0998
119 | RRIRDRPPRLPRPRPRPSPPPRP | -0.15
120 | RRIRGRPPRLPRPRPRPSKLPRP | 0.0492
121 | RRIRTRPPRLPRPRPRPFIIPRP | -0.919
122 | RRIRVRPPRLPRPRPRPIMPPRP | -0.535
123 | RRIRSRPPRLPRPRPRPNIGPRP | -0.283
124 | RRIRYRPPRLPRPRPRPWGYPRP | -0.0919
125 | RRIRRRPPRLPRPRPRPHEPPRP | -0.0636

Row | Sequence | shrunken log2 fold change
126 | RRIRNRPPRLPRPRPRPFELPRP | 0.00621
127 | RRIRSRPPRLPRPRPRPFPAPRP | 0.0186
128 | RRIRMRPPRLPRPRPRPVIMPRP | -0.101
129 | RRIRKRPPRLPRPRPRPNFFPRP | 0.0314
130 | RRIRCRPPRLPRPRPRPNHGPRP | -0.746
131 | RRIRDRPPRLPRPRPRPIYPPRP | -1.42
132 | RRIRFRPPRLPRPRPRPETWPRP | 0.0692
133 | RRIRARPPRLPRPRPRPVICPRP | 0.408
134 | RRIRSRPPRLPRPRPRPIDAPRP | -0.101
135 | RRIRERPPRLPRPRPRPVDGPRP | 0.222
136 | RRIRLRPPRLPRPRPRPIKMPRP | -0.347
137 | RRIRCRPPRLPRPRPRPMTKPRP | 0.0306
138 | RRIRMRPPRLPRPRPRPEPTPRP | 2.58
139 | RRIRPRPPRLPRPRPRPCLTPRP | -0.0809
140 | RRIRDRPPRLPRPRPRPQGIPRP | -0.0548
141 | RRIRIRPPRLPRPRPRPGKWPRP | 0.0539
142 | RRIRLRPPRLPRPRPRPRYTPRP | -0.0696
143 | RRIRKRPPRLPRPRPRPIYDPRP | -0.0349
144 | RRIRNRPPRLPRPRPRPKFQPRP | -0.505
145 | RRIRTRPPRLPRPRPRPPYMPRP | -0.302
146 | RRIRDRPPRLPRPRPRPEHEPRP | 0.017
147 | RRIRYRPPRLPRPRPRPRTTPRP | -0.011
148 | RRIRHRPPRLPRPRPRPPSDPRP | 0.146
149 | RRIRGRPPRLPRPRPRPRNYPRP | 0.00522
150 | RRIRNRPPRLPRPRPRPLNPPRP | -0.133
